Legend:
[1] = design: species or system mice (BALB/c nu/nu); conditions: mouse, in vivo
Experimental: A Gd-labeled conjugate of the conjugate containing a peptide linker produced in one of the above Examples was administered from the tail vein of tumor-bearing mice so that the protein mass was 0.02 mg (100 μL) per animal. As the tumor-bearing mice used in the present Example, mice (BALB/c nu/nu) that were in a tumor-bearing state brought about by transplanting human colorectal cancer cell line LS174T cells (ATCC(registered trademark); CL-188) at 2.0 to 5.0×10^6 cells/mouse subcutaneously on the back before administration of the sample were used. 24 hours after administration of the sample, the mice were sacrificed, the kidneys and the tumor were removed, and the amounts of Gd in the kidneys and in the tumor were measured using ICP-MS. The present test was carried out in 3 cases in each group, and the mean value of the 3 cases was calculated. The amount of Gd contained per kidney after administration was shown as a percentage of the amount of Gd administered (% of dose/tissue), and the amount of Gd contained per g of tumor tissue was shown as a percentage of the total amount of Gd administered (% of dose/g).

[2] = mouse, in vivo
Experimental: (§1) A Gd-labeled conjugate of the conjugate containing a peptide linker produced in one of the above Examples was administered from the tail vein of mice (BALB/c or BALB/c nu/nu) so that the protein mass was 0.02 mg (100 μL) per animal. After about 24 hours, the mice were sacrificed and the kidneys were removed, and the amount of Gd in the kidneys was measured using ICP-MS. The present test was carried out in 3 cases in each group, the mean value of the 3 cases was calculated, and the amount of Gd contained per kidney after administration was shown as a percentage (% of dose/tissue) of the total amount of Gd administered.
Based on the percentage of the control conjugate (% of dose/tissue), the proportion of decrease in the amount of Gd contained in the kidneys of each of the conjugates having a peptide linker was determined and shown in Table 28.

[3] = design: species or system mice (BALB/c or BALB/c nu/nu); conditions: mouse, in vivo
Experimental: as §1

[4] = target: human cancer-specific MUC1 peptide (PTL 1) (human); experiment: ELISA, immobilised MUC1 peptide (Example 6-2)
Chain of human cancer-specific MUC1 peptide (PTL 1) (human) (main, as listed by the source): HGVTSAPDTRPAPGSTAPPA

Row | Molecule | Renal residual amount (cancer-bearing mice), % of dose/tissue [1] | Renal residual amount (cancer-bearing mice), Proportion of decrease (%) [1] | Proportion of decrease (%) in the amount of Gd contained in the kidneys [2] | also measured
1 | [Gd/DOTA-NH—(CH2CH2O)3—CH2—C(═O)—NH—CH2-(1,3-Ph)-C(═O)-Met-Gly-Lys*-Z2(#N)]p-Fab^2 (conjugate) heavy: EVQLVESGGGLVQPGGSLRLSCAASGFNIRDTYMHWVRQAPGKGLEWVARIDPANGNSRYVPKFQGRFTISADTSRNTAYLQMNSLRAEDTAVYYCAPFGYYVSDYAMAYWGQGTLVTVSSASTKGPSVFPLAPSSKSTSGGTAALGCLVKDYFPEPVTVSWNSGALTSGVHTFPAVLQSSGLYSLSSVVTVPSSSLGTQTYICNVNHKPSNTKVDKKVEPKSCD light: DIQLTQSPSSLSASVGDRVTITCRAGESVDIFGVGFLHWYQQKPGKAPKLLIYRASNLESGIPSRFSGSGSRTDFTLTISSLQPEDFATYYCQQTNEDPYTFGQGTKVEIKRTVAAPSVFIFPPSDEQLKSGTASVVCLLNNFYPREAKVQWKVDNALQSGNSQESVTEQDSKDSTYSLSSTLTLSKADYEKHKVYACEVTHQGLSSPVTKSFNRGEC | 8.40 % of dose/tissue | 67.48% | 78.0% | –
2 | [Gd/DOTA-NH—(CH2CH2O)3—CH2—C(═O)—NH—CH2-(1,3-Ph)-C(═O)-Met-Gly-Lys*-Z2(#S)]p-Fab^2 (conjugate) heavy: EVQLVESGGGLVQPGGSLRLSCAASGFNIRDTYMHWVRQAPGKGLEWVARIDPANGNSRYVPKFQGRFTISADTSRNTAYLQMNSLRAEDTAVYYCAPFGYYVSDYAMAYWGQGTLVTVSSASTKGPSVFPLAPSSKSTSGGTAALGCLVKDYFPEPVTVSWNSGALTSGVHTFPAVLQSSGLYSLSSVVTVPSSSLGTQTYICNVNHKPSNTKVDKKVEPKSCD light: DIQLTQSPSSLSASVGDRVTITCRAGESVDIFGVGFLHWYQQKPGKAPKLLIYRASNLESGIPSRFSGSGSRTDFTLTISSLQPEDFATYYCQQTNEDPYTFGQGTKVEIKRTVAAPSVFIFPPSDEQLKSGTASVVCLLNNFYPREAKVQWKVDNALQSGNSQESVTEQDSKDSTYSLSSTLTLSKADYEKHKVYACEVTHQGLSSPVTKSFNRGEC | 9.40 % of dose/tissue | 63.61% | 77.4% | –
3 | [Gd/DOTA-NH—(CH2CH2O)3—CH2—C(═O)—NH—CH2-(1,3-Ph)-C(═O)-Gly-Lys*—Z2(#N)]p-Fab^2 (conjugate) heavy: EVQLVESGGGLVQPGGSLRLSCAASGFNIRDTYMHWVRQAPGKGLEWVARIDPANGNSRYVPKFQGRFTISADTSRNTAYLQMNSLRAEDTAVYYCAPFGYYVSDYAMAYWGQGTLVTVSSASTKGPSVFPLAPSSKSTSGGTAALGCLVKDYFPEPVTVSWNSGALTSGVHTFPAVLQSSGLYSLSSVVTVPSSSLGTQTYICNVNHKPSNTKVDKKVEPKSCD light: DIQLTQSPSSLSASVGDRVTITCRAGESVDIFGVGFLHWYQQKPGKAPKLLIYRASNLESGIPSRFSGSGSRTDFTLTISSLQPEDFATYYCQQTNEDPYTFGQGTKVEIKRTVAAPSVFIFPPSDEQLKSGTASVVCLLNNFYPREAKVQWKVDNALQSGNSQESVTEQDSKDSTYSLSSTLTLSKADYEKHKVYACEVTHQGLSSPVTKSFNRGEC | – | – | 44.8% | –
4 | [Gd/DOTA-NH—CH2-(1,3-Ph)-C(═O)-Asp-Gly-Lys*-Z2(#N)]p-Fab^2 (conjugate) heavy: EVQLVESGGGLVQPGGSLRLSCAASGFNIRDTYMHWVRQAPGKGLEWVARIDPANGNSRYVPKFQGRFTISADTSRNTAYLQMNSLRAEDTAVYYCAPFGYYVSDYAMAYWGQGTLVTVSSASTKGPSVFPLAPSSKSTSGGTAALGCLVKDYFPEPVTVSWNSGALTSGVHTFPAVLQSSGLYSLSSVVTVPSSSLGTQTYICNVNHKPSNTKVDKKVEPKSCD light: DIQLTQSPSSLSASVGDRVTITCRAGESVDIFGVGFLHWYQQKPGKAPKLLIYRASNLESGIPSRFSGSGSRTDFTLTISSLQPEDFATYYCQQTNEDPYTFGQGTKVEIKRTVAAPSVFIFPPSDEQLKSGTASVVCLLNNFYPREAKVQWKVDNALQSGNSQESVTEQDSKDSTYSLSSTLTLSKADYEKHKVYACEVTHQGLSSPVTKSFNRGEC | – | – | 52.2% | Renal residual amount (normal mice), % of dose/tissue [3]: 21.67 % of dose/tissue; Renal residual amount (normal mice), Proportion of decrease (%) [3]: 26.12%
5 | [Gd/DOTA-NH—CH2-(1,3-Ph)-C(═O)-Met-Gly-Lys*-Z2(#N)]p-Fab^2 (conjugate) heavy: EVQLVESGGGLVQPGGSLRLSCAASGFNIRDTYMHWVRQAPGKGLEWVARIDPANGNSRYVPKFQGRFTISADTSRNTAYLQMNSLRAEDTAVYYCAPFGYYVSDYAMAYWGQGTLVTVSSASTKGPSVFPLAPSSKSTSGGTAALGCLVKDYFPEPVTVSWNSGALTSGVHTFPAVLQSSGLYSLSSVVTVPSSSLGTQTYICNVNHKPSNTKVDKKVEPKSCD light: DIQLTQSPSSLSASVGDRVTITCRAGESVDIFGVGFLHWYQQKPGKAPKLLIYRASNLESGIPSRFSGSGSRTDFTLTISSLQPEDFATYYCQQTNEDPYTFGQGTKVEIKRTVAAPSVFIFPPSDEQLKSGTASVVCLLNNFYPREAKVQWKVDNALQSGNSQESVTEQDSKDSTYSLSSTLTLSKADYEKHKVYACEVTHQGLSSPVTKSFNRGEC | – | – | 50.3% | –
6 | Ex-No 10: (Y—S1—X)p-Fab^2: Y Gd/DOTA, S1 bond, X -Met-Ile-Lys*-Z2(#N)— (conjugate) heavy: EVQLVESGGGLVQPGGSLRLSCAASGFNIRDTYMHWVRQAPGKGLEWVARIDPANGNSRYVPKFQGRFTISADTSRNTAYLQMNSLRAEDTAVYYCAPFGYYVSDYAMAYWGQGTLVTVSSASTKGPSVFPLAPSSKSTSGGTAALGCLVKDYFPEPVTVSWNSGALTSGVHTFPAVLQSSGLYSLSSVVTVPSSSLGTQTYICNVNHKPSNTKVDKKVEPKSCD light: DIQLTQSPSSLSASVGDRVTITCRAGESVDIFGVGFLHWYQQKPGKAPKLLIYRASNLESGIPSRFSGSGSRTDFTLTISSLQPEDFATYYCQQTNEDPYTFGQGTKVEIKRTVAAPSVFIFPPSDEQLKSGTASVVCLLNNFYPREAKVQWKVDNALQSGNSQESVTEQDSKDSTYSLSSTLTLSKADYEKHKVYACEVTHQGLSSPVTKSFNRGEC | – | – | – | Renal residual amount (normal mice), % of dose/tissue [3]: 20.10 % of dose/tissue; Renal residual amount (normal mice), Proportion of decrease (%) [3]: 31.46%
7 | [Gd/DOTA-NH—CH2-(1,4-Ph)-NH—C(═O)-Met-Ile-NH—(CH2)2—Z(#N)]p-Fab^2 (conjugate) heavy: EVQLVESGGGLVQPGGSLRLSCAASGFNIRDTYMHWVRQAPGKGLEWVARIDPANGNSRYVPKFQGRFTISADTSRNTAYLQMNSLRAEDTAVYYCAPFGYYVSDYAMAYWGQGTLVTVSSASTKGPSVFPLAPSSKSTSGGTAALGCLVKDYFPEPVTVSWNSGALTSGVHTFPAVLQSSGLYSLSSVVTVPSSSLGTQTYICNVNHKPSNTKVDKKVEPKSCD light: DIQLTQSPSSLSASVGDRVTITCRAGESVDIFGVGFLHWYQQKPGKAPKLLIYRASNLESGIPSRFSGSGSRTDFTLTISSLQPEDFATYYCQQTNEDPYTFGQGTKVEIKRTVAAPSVFIFPPSDEQLKSGTASVVCLLNNFYPREAKVQWKVDNALQSGNSQESVTEQDSKDSTYSLSSTLTLSKADYEKHKVYACEVTHQGLSSPVTKSFNRGEC | 5.77 % of dose/tissue | 77.68% | – | Renal residual amount (normal mice), % of dose/tissue [3]: 2.60 % of dose/tissue; Renal residual amount (normal mice), Proportion of decrease (%) [3]: 91.13%
8 | [Gd/DOTA-NH—CH2-(1,3-Ph)-C(═O)-Met-Gly-Lys*-Z2(#S)]p-Fab^2 (conjugate) heavy: EVQLVESGGGLVQPGGSLRLSCAASGFNIRDTYMHWVRQAPGKGLEWVARIDPANGNSRYVPKFQGRFTISADTSRNTAYLQMNSLRAEDTAVYYCAPFGYYVSDYAMAYWGQGTLVTVSSASTKGPSVFPLAPSSKSTSGGTAALGCLVKDYFPEPVTVSWNSGALTSGVHTFPAVLQSSGLYSLSSVVTVPSSSLGTQTYICNVNHKPSNTKVDKKVEPKSCD light: DIQLTQSPSSLSASVGDRVTITCRAGESVDIFGVGFLHWYQQKPGKAPKLLIYRASNLESGIPSRFSGSGSRTDFTLTISSLQPEDFATYYCQQTNEDPYTFGQGTKVEIKRTVAAPSVFIFPPSDEQLKSGTASVVCLLNNFYPREAKVQWKVDNALQSGNSQESVTEQDSKDSTYSLSSTLTLSKADYEKHKVYACEVTHQGLSSPVTKSFNRGEC | 12.33 % of dose/tissue | 52.26% | 58.3% | –
9 | ([Gd/DOTA-NH-CH2-(1,4-Ph)-NH-C(═O)-Met-Ile-NH-(CH2)2-Z1(#N)]p-Fab^5) (Fab, V domains shown, labeling portion on p amino groups of the Fab; chain and sites not stated) VH: QVQLVQSGAEVKKPGASVKVSCKASGYTFTNYGLSWVRQAPGQGLEWMGENHPGSGIIYHNEKFRGRVTLTADRSTSTAYMELSSLRSEDTAVYYCARSSGTRGFDYWGQGTLVTVSS VL: DVVMTQTPLSLSVTPGQPASISCRSSQSIVHSNGNTYLEWYLQKPGQSPQLLIYRVSNRFSGVPDRFSGSGSGTDFTLKISRVEAEDVGVYYCFQGSHGPWTFGQGTKLEIKR | – | – | – | EC50 [4]: 80 pM
10 | ([Gd/DOTA-[2,5-(1,2,3,4-tetrahydroisoquinoline)]-C(═O)-Met-Gly-Lys*-C(═S)-NH-(1,4-Ph)-NH-C(═S)]p-Fab^5) (Fab, V domains shown, labeling portion on p amino groups of the Fab; chain and sites not stated) VH: QVQLVQSGAEVKKPGASVKVSCKASGYTFTNYGLSWVRQAPGQGLEWMGENHPGSGIIYHNEKFRGRVTLTADRSTSTAYMELSSLRSEDTAVYYCARSSGTRGFDYWGQGTLVTVSS VL: DVVMTQTPLSLSVTPGQPASISCRSSQSIVHSNGNTYLEWYLQKPGQSPQLLIYRVSNRFSGVPDRFSGSGSGTDFTLKISRVEAEDVGVYYCFQGSHGPWTFGQGTKLEIKR | – | – | – | EC50 [4]: 190 pM
11 | ([Gd/DOTA-NH-CH2-(1,4-Ph)-NH-C(═O)-Met-Ile-NH-(CH2)2-Z1(#S)]p-Fab^5) (Fab, V domains shown, labeling portion on p amino groups of the Fab; chain and sites not stated) VH: QVQLVQSGAEVKKPGASVKVSCKASGYTFTNYGLSWVRQAPGQGLEWMGENHPGSGIIYHNEKFRGRVTLTADRSTSTAYMELSSLRSEDTAVYYCARSSGTRGFDYWGQGTLVTVSS VL: DVVMTQTPLSLSVTPGQPASISCRSSQSIVHSNGNTYLEWYLQKPGQSPQLLIYRVSNRFSGVPDRFSGSGSGTDFTLKISRVEAEDVGVYYCFQGSHGPWTFGQGTKLEIKR | – | – | – | EC50 [4]: 90 pM
